Data reported in patent publication EP1073891B1, “METHOD OF PREDICTING RECEPTOR MODULATING ACTIVITY” (Duke University, priority 1998, dated 1999).
Like-named read-outs stand apart in the source and are kept apart here. Values belong to the molecule of their own block, whether it stands above or below them.

How the values were obtained:
ERβ [1] = target: T1, ERβ (Homo sapiens, UniProt Q92731); assay: Phage ELISA / fingerprint on ER immobilized on biotinylated ERE (Examples 2.3-2.5); details: probe α/β I (LXXLL motif)
T1 sequence (Q92731 whole entry): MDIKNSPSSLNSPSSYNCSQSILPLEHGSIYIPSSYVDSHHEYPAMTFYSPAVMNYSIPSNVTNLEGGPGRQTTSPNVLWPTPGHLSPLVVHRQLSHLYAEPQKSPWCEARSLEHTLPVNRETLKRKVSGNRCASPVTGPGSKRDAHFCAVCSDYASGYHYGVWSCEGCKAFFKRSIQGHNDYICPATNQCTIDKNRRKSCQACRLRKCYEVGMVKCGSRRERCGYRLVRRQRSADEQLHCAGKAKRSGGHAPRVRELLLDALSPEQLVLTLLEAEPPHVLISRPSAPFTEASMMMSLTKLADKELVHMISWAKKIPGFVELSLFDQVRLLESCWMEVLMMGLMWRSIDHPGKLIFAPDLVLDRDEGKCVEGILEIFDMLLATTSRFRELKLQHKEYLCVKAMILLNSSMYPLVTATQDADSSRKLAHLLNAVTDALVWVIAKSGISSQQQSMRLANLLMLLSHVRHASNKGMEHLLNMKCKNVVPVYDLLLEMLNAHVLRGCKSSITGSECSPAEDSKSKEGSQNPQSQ
Experimental: Immulon 4 96-well plates were coated with streptavidin in 0.1 sodium bicarbonate.
All of the phage were classified based on their ability to bind to ER a and ER β, in the presence or absence of SERMs. These assays were conducted by phage ELISA. In essence, plastic plates were coated with streptavidin (sigma). Biotinylated-EREs (see above) were conjugated to the solid-phase streptavidin, and ER to the ERE. Bound phage were detected using horseradish peroxidase-labeled anti-(M13 phage) antibodies.
The ER was then incubated with 100µl TBST or TBST containing 1 µM of the appropriate modulator. Phage (40µl), from a 5 hour culture grown in DH5αF' cells, was added directly to the wells and incubated 30 minutes at room temperature. Unbound phage were then removed by 5 washes with TBST. Bound phage were detected using an anti-M13 antibody coupled to horseradish peroxidase (HRP). Assays were developed with 2,2'-azinobis(3-ethylbenzothiazoline)-6 sulfonic acid (ABTS) and hydrogen peroxide for 10 minutes and then stopped by the addition of 1% SDS.
The binding activity is indicated on a semiquantitative scale of 0 to 7+.
The probes were used to fingerprint the interaction of ER α and ER β with a variety of different SERMs by the assay method previously described (using ERE). Next, we evaluated the binding of each of the probes to ERα and ERβ in the presence of a variety of ER ligands that have distinct biological activities. The goal was to determine if each of the ligands would induce a conformational change in the ER that would alter the binding pattern of the probes, thus producing a "fingerprint" for each compound. […] Buffer only (apo-receptor) and progesterone were included as controls.
Phage were amplified from plaques in DHSα F' for 5 hours. Bound phage were detected as described previously. Assays were developed with ABTS (2,2'-azinobis(3-ethylbenzthiazoline-sulfonic acid) for 10 minutes.

ERβ [2] = target: T1, ERβ; assay: Time resolved fluorescence (TRF) binding of europium-streptavidin peptide conjugates in the presence of modulators; design: purchased PanVera Corporation, Madison, WI; details: for EC50 / Equiv.: ERβ; for Equiv.: positive: % of maximum stimulation by the reference modulator, negative: % of reduction by ICI 182,780
ERα = target: T2, ERα (Homo sapiens, UniProt P03372); assay: Phage ELISA / fingerprint on ER immobilized on biotinylated ERE (Examples 2.3-2.5); assay type: binding; design: purchased PanVera Corporation, Madison, WI; key to binding activity, ERα and buffer / binding activity, ERα and estradiol / binding activity, ERα and tamoxifen / binding of peptide, Class Specific Fingerprint on ERα: semiquantitative scale of 0 to 7+; 1+: semiquantitative scale of 0 to 7+; 2+: semiquantitative scale of 0 to 7+; 3+: semiquantitative scale of 0 to 7+; 4+: semiquantitative scale of 0 to 7+; 5+: semiquantitative scale of 0 to 7+; 6+: semiquantitative scale of 0 to 7+; semiquantitative scale of 0 to 7+; details: for binding activity, ERα and estradiol: ERα and estradiol (1 µM); for binding activity, ERα and tamoxifen: ERα and tamoxifen (4-OH tamoxifen, 1 µM)
T2 sequence (P03372 1-595): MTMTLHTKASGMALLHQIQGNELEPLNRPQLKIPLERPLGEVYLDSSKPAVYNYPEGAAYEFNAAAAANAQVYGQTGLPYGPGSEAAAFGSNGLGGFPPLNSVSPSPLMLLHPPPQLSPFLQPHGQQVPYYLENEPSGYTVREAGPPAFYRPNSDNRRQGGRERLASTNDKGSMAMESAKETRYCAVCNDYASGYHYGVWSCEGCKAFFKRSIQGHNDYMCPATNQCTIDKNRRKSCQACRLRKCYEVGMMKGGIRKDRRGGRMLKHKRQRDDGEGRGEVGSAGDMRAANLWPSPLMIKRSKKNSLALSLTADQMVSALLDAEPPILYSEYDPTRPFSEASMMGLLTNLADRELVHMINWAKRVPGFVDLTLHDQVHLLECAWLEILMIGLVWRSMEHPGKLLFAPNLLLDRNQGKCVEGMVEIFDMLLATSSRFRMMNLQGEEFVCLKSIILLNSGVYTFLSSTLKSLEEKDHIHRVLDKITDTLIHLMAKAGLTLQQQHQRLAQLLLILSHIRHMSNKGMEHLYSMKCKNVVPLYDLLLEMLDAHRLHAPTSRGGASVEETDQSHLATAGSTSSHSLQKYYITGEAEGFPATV

ERβ [3] = target: T1, ERβ; assay: as above; assay type: binding; design: purchased PanVera Corporation, Madison, WI; key: semiquantitative scale of 0 to 7+; 1+: semiquantitative scale of 0 to 7+; 2+: semiquantitative scale of 0 to 7+; 3+: semiquantitative scale of 0 to 7+; 4+: semiquantitative scale of 0 to 7+; 5+: semiquantitative scale of 0 to 7+; 6+: semiquantitative scale of 0 to 7+; semiquantitative scale of 0 to 7+; details: for binding activity, ERβ and Estradiol: ERβ and Estradiol (1 µM); for binding activity, ERβ and tamoxifen: ERβ and tamoxifen (4-OH tamoxifen, 1 µM)
[4] = TRF binding assay, in the presence of the compound
[5] = 4-OH Tamoxifen present during binding
[6] = 16a-OH Estrone present during binding
[7] = Clomiphene present during binding
[8] = Estradiol present during binding
[9] = ICI 182,780 present during binding
[10] = Nafoxidine present during binding
[11] = Premarin present during binding
[12] = Progesterone present during binding
[13] = Raloxifene present during binding

binding activity, ERα and buffer (ERα): 6+
binding activity, ERα and estradiol (ERα): 5+
binding activity, ERα and tamoxifen (ERα): 6+
binding activity, ERβ and Estradiol (ERβ [3]): 6+
binding activity, ERβ and buffer (ERβ [3]): 5+
binding activity, ERβ and tamoxifen (ERβ [3]): 4+
Molecule: SSRTPILFSLLETSR [Peptide 11E-β]

binding activity, ERα and buffer (ERα): 2+
binding activity, ERα and estradiol (ERα): 2+
binding activity, ERα and tamoxifen (ERα): 3+
binding activity, ERβ and Estradiol (ERβ [3]): 2+
binding activity, ERβ and buffer (ERβ [3]): 5+
binding activity, ERβ and tamoxifen (ERβ [3]): 4+
Molecule: SSSGPWRWGLSIESR [Peptide 17b-β]

binding activity, ERα and buffer (ERα): 2+
binding activity, ERα and estradiol (ERα): 3+
binding activity, ERα and tamoxifen (ERα): 3+
binding activity, ERβ and Estradiol (ERβ [3]): 4+
binding activity, ERβ and buffer (ERβ [3]): 7+
binding activity, ERβ and tamoxifen (ERβ [3]): 5+
Molecule: SSSLGPWRLSELESR [Peptide 16b-β]

binding activity, ERα and buffer (ERα): 4+
binding activity, ERα and estradiol (ERα): 3+
binding activity, ERα and tamoxifen (ERα): 3+
binding activity, ERβ and Estradiol (ERβ [3]): 7+
binding activity, ERβ and buffer (ERβ [3]): 3+
binding activity, ERβ and tamoxifen (ERβ [3]): 2+
Molecule: SSTRLMCWLGSADTSHCSR [Peptide 28E-β]

binding activity, ERα and buffer (ERα): 4+
binding activity, ERα and estradiol (ERα): 3+
binding activity, ERα and tamoxifen (ERα): 3+
binding activity, ERβ and Estradiol (ERβ [3]): 7+
binding activity, ERβ and buffer (ERβ [3]): 6+
binding activity, ERβ and tamoxifen (ERβ [3]): 3+
Molecule: SSTTWRCPEWYCGSR [Peptide 30E-β]

binding activity, ERα and buffer (ERα): 3+
binding activity, ERα and estradiol (ERα): 2+
binding activity, ERα and tamoxifen (ERα): 5+
binding activity, ERβ and Estradiol (ERβ [3]): 2+
binding activity, ERβ and buffer (ERβ [3]): 6+
binding activity, ERβ and tamoxifen (ERβ [3]): 7+
Molecule: SSVASREWWVRELSR [Peptide 15t-β]

binding activity, ERα and buffer (ERα): 3+
binding activity, ERα and estradiol (ERα): 2+
binding activity, ERα and tamoxifen (ERα): 3+
binding activity, ERβ and Estradiol (ERβ [3]): 7+
binding activity, ERβ and buffer (ERβ [3]): 3+
binding activity, ERβ and tamoxifen (ERβ [3]): 2+
Molecule: SSWDFRVPWWYNNSR [Peptide 31E-β]

binding activity, ERα and buffer (ERα): 4+
binding activity, ERα and estradiol (ERα): 3+
binding activity, ERα and tamoxifen (ERα): 4+
binding activity, ERβ and Estradiol (ERβ [3]): 4+
binding activity, ERβ and buffer (ERβ [3]): 7+
binding activity, ERβ and tamoxifen (ERβ [3]): 5+
Molecule: SSWPGAEWFKEQLSR [Peptide 20b-β]

binding activity, ERα and buffer (ERα): 3+
binding activity, ERα and estradiol (ERα): 4+
binding activity, ERα and tamoxifen (ERα): 3+
binding activity, ERβ and Estradiol (ERβ [3]): 7+
binding activity, ERβ and buffer (ERβ [3]): 7+
binding activity, ERβ and tamoxifen (ERβ [3]): 5+
Molecule: SSYDWQCPSWYCPAPPSSR [Peptide 29E-β]

binding activity, ERα and buffer (ERα): 5+
binding activity, ERα and estradiol (ERα): 3+
binding activity, ERα and tamoxifen (ERα): 4+
binding activity, ERβ and Estradiol (ERβ [3]): 6+
binding activity, ERβ and buffer (ERβ [3]): 4+
binding activity, ERβ and tamoxifen (ERβ [3]): 2+
Molecule: SSYEIPKWALQWLSR [Peptide 34E-β]

The next lines start with the molecule.

Molecule: CC/C(=C(\c1ccc(O)cc1)c1ccc(OCCN(C)C)cc1)c1ccccc1 [4-OH Tamoxifen, 4-OH tamoxifen]
binding of the probe α/β I to ER β in the presence of the ligand (ERβ [1]): prevented the binding
binding of the β I probe to ER β (ERβ [2]): enhanced

Molecule: CCN(CC)CCOc1ccc(C(=C(Cl)c2ccccc2)c2ccccc2)cc1 [Clomiphene, clomiphene]
binding of the probe α/β I to ER β in the presence of the ligand (ERβ [1]): prevented the binding
binding of the β I probe to ER β (ERβ [2]; [4]): reduced
EC50 (ERβ [2]; peptide probe α/βIII): 82.2 nM
Equiv. (ERβ [2]; peptide probe α/βIII): 34%
Equiv. (ERβ [2]; peptide probe α/βIV): 0%
EC50 (ERβ [2]; peptide probe α/βV): 150 nM
Equiv. (ERβ [2]; peptide probe α/βV): 13%
EC50 (ERβ [2]; peptide probe βI): 135 nM
Equiv. (ERβ [2]; peptide probe βI): -62%
EC50 (ERβ [2]; peptide probe βIII): 123 nM
Equiv. (ERβ [2]; peptide probe βIII): -61%

Molecule: CC/C(=C(/CC)c1ccc(O)cc1)c1ccc(O)cc1 [DES, diethylstilbestrol]
binding of the β I probe to ER β (ERβ [2]; [4]): reduction

Molecule: CC/C(=C(\c1ccc(O)cc1)c1ccc(/C=C/C(=O)O)cc1)c1ccccc1 [GW 7604]
Equiv. (ERβ [2]; peptide probe α/βI): 0%
Equiv. (ERβ [2]; peptide probe α/βV): 0%

Molecule: C[C@]12CC[C@@H]3c4ccc(O)cc4C[C@@H](CCCCCCCCC[S+]([O-])CCCC(F)(F)C(F)(F)F)[C@H]3[C@@H]1CC[C@@H]2O (stereo partly drawn) [ICI 182,780]
binding of the probe α/β I to ER β in the presence of the ligand (ERβ [1]): prevented the binding

Molecule: O=C(c1ccc(OCCN2CCCCC2)cc1)c1c(-c2ccc(O)cc2)sc2cc(O)ccc12 [raloxifene]
binding of the probe α/β I to ER β in the presence of the ligand (ERβ [1]): prevented the binding
binding of the β I probe to ER β (ERβ [2]): reduced

Molecule: SSSMMREFFERELSR [Peptide 5b-β]
binding activity, ERα and buffer (ERα): 6+
binding activity, ERα and estradiol (ERα): 6+
binding activity, ERα and tamoxifen (ERα): 7+
binding activity, ERβ and Estradiol (ERβ [3]): 6+
binding activity, ERβ and buffer (ERβ [3]): 7+
binding activity, ERβ and tamoxifen (ERβ [3]): 7+

Molecule: SSTSWLHHYLMGTSR [Peptide 8b-β]
binding activity, ERα and buffer (ERα): 1+
binding activity, ERα and estradiol (ERα): 4+
binding activity, ERα and tamoxifen (ERα): 2+
binding activity, ERβ and Estradiol (ERβ [3]): 7+
binding activity, ERβ and buffer (ERβ [3]): 7+
binding activity, ERβ and tamoxifen (ERβ [3]): 1+

Molecule: SSTTMFDFFYERLSR [Peptide 6t-β]
binding activity, ERα and buffer (ERα): 4+
binding activity, ERα and estradiol (ERα): 4+
binding activity, ERα and tamoxifen (ERα): 6+
binding activity, ERβ and Estradiol (ERβ [3]): 4+
binding activity, ERβ and buffer (ERβ [3]): 7+
binding activity, ERβ and tamoxifen (ERβ [3]): 7+

Molecule: SSVFTIMDGKVALSR [Peptide 1t-β]
binding activity, ERα and buffer (ERα): 3+
binding activity, ERα and estradiol (ERα): 3+
binding activity, ERα and tamoxifen (ERα): 7+
binding activity, ERβ and Estradiol (ERβ [3]): 2+
binding activity, ERβ and buffer (ERβ [3]): 3+
binding activity, ERβ and tamoxifen (ERβ [3]): 7+

Molecule: SSWNSREFFLSQLSR [Peptide 5t-β]
binding activity, ERα and buffer (ERα): 3+
binding activity, ERα and estradiol (ERα): 2+
binding activity, ERα and tamoxifen (ERα): 5+
binding activity, ERβ and Estradiol (ERβ [3]): 2+
binding activity, ERβ and buffer (ERβ [3]): 2+
binding activity, ERβ and tamoxifen (ERβ [3]): 7+

Molecule: SSWPNPTFWERQLSR [Peptide 3b-β]
binding activity, ERα and buffer (ERα): 5+
binding activity, ERα and estradiol (ERα): 3+
binding activity, ERα and tamoxifen (ERα): 3+
binding activity, ERβ and Estradiol (ERβ [3]): 2+
binding activity, ERβ and buffer (ERβ [3]): 5+

Molecule: SWDMHQFFWEGVSR [Peptide 2PT]
binding of peptide, Class Specific Fingerprint on ERα (ERα; [5]): 7+
binding of peptide, Class Specific Fingerprint on ERα (ERα; [6]): 2+
binding of peptide, Class Specific Fingerprint on ERα (ERα; [7]): 6+
binding of peptide, Class Specific Fingerprint on ERα (ERα; DES present during binding): 1+
binding of peptide, Class Specific Fingerprint on ERα (ERα; [8]): 1+
binding of peptide, Class Specific Fingerprint on ERα (ERα; Estriol present during binding): 1+
binding of peptide, Class Specific Fingerprint on ERα (ERα; [9]): 1+
binding of peptide, Class Specific Fingerprint on ERα (ERα; [10]): 4+
binding of peptide, Class Specific Fingerprint on ERα (ERα; [11]): 2+
binding of peptide, Class Specific Fingerprint on ERα (ERα; [12]): 2+
binding of peptide, Class Specific Fingerprint on ERα (ERα; [13]): 4+
binding of peptide, Class Specific Fingerprint on ERα (ERα; buffer present during binding): 1+
binding of peptide, Class Specific Fingerprint on ERβ (ERβ [3]; [5]): 7+
binding of peptide, Class Specific Fingerprint on ERβ (ERβ [3]; [6]): 1+
binding of peptide, Class Specific Fingerprint on ERβ (ERβ [3]; [7]): 5+
binding of peptide, Class Specific Fingerprint on ERβ (ERβ [3]; DES present during binding): 1+
binding of peptide, Class Specific Fingerprint on ERβ (ERβ [3]; [8]): 1+
binding of peptide, Class Specific Fingerprint on ERβ (ERβ [3]; Estriol present during binding): 1+
binding of peptide, Class Specific Fingerprint on ERβ (ERβ [3]; [9]): 1+
binding of peptide, Class Specific Fingerprint on ERβ (ERβ [3]; [10]): 3+
binding of peptide, Class Specific Fingerprint on ERβ (ERβ [3]; [11]): 1+
binding of peptide, Class Specific Fingerprint on ERβ (ERβ [3]; [12]): 1+
binding of peptide, Class Specific Fingerprint on ERβ (ERβ [3]; [13]): 6+
binding of peptide, Class Specific Fingerprint on ERβ (ERβ [3]; buffer present during binding): 2+

Molecule: SYSKEWFEERLNSR [Peptide 4b-β]
binding activity, ERα and buffer (ERα): 4+
binding activity, ERα and estradiol (ERα): 3+
binding activity, ERα and tamoxifen (ERα): 3+
binding activity, ERβ and Estradiol (ERβ [3]): 3+
binding activity, ERβ and buffer (ERβ [3]): 7+
binding activity, ERβ and tamoxifen (ERβ [3]): 3+
